US20230302100
“And” between values parts separate entries of the source, which are not always exact repeats. Equal entries are not always repeated.

Target: IVIg (Octagam)

B1: pCART202 (protein)
chain: MDDYQRNATEAYAKEVPHQITSVWTKGVTPLTPEQFTQGEDVIHAPYLAHQGWYDITKAFDGKDNLLCGAATAGNMLHWWFDQNKTEIEAYLSKHPEKQKIIFNNQELFDLKAAIDTKDSQTNSQLFNYFRDKAFPNLSARQLGVMPDLVLDMFINGYYLNVFKTQSTDVNRPYQDKDKRGGIFDAVFTRGDQTTLLTARHDLKNKGLNDISTIIKQELTEGRALALSHTYANVSISHVINLWGADFNAEGNLEAIYVTDSDANASIGMKKYFVGINAHGHVAISAKKIEGENIGAQVLGLFTLSSGKDIWQKLSGGGHHHHHH
IVIg cleavage, SDS-PAGE titration: enzyme concentration giving an intense scIgG band: Concentrations of 0.94 ng/ml (lane 6) for pCART202, pCART203 and pCART204 result in an intense band of scIgG (arrow 2), with most of the IgG single cleaved

B2: pCART144 (IdeZ with N terminal methionine and histidine tag) (protein)
chain: MDDYQRNATEAYAKEVPHQITSVWTKGVTPLTPEQFRYNNEDVIHAPYLAHQGWYDITKAFDGKDNLLCGAATAGNMLHWWFDQNKTEIEAYLSKHPEKQKIIFNNQELFDLKAAIDTKDSQTNSQLFNYFRDKAFPNLSARQLGVMPDLVLDMFINGYYLNVFKTQSTDVNRPYQDKDKRGGIFDAVFTRGDQTTLLTARHDLKNKGLNDISTIIKQELTEGRALALSHTYANVSISHVINLWGADFNAEGNLEAIYVTDSDANASIGMKKYFVGINAHGHVAISAKKIEGENIGAQVLGLFTLSSGKDIWQKLSGGGHHHHHH
IVIg cleavage of the 2nd heavy chain, SDS-PAGE titration: pCART144 (IdeZ) is worse in cleavage of the 2nd heavy chain compared to IdeS (BX1001865 and pCART124)
IVIg cleavage, SDS-PAGE titration: shows more effective cleavage at the 1st IgG heavy chain (lane 6) compared to IdeS (BX1001865 and pCART124)

B3: pCART229 (protein)
chain: MDDYQRNATEAYAKEVPHQITSVWTKGVTPPEQFTQGEDVIHAPYLAHQGWYDITKAFDGKDNLLCGAATAGNMLHWWFDQNKTEIEAYLSKHPEKQKIIFRNQELFDLKAAIDTKDSQTNSQLFNYFRDKAFPNLSARQLGVMPDLVLDMFINGYYLNVFKTQSTDVNRPYQDKDKRGGIFDAVFTRGNQTTLLTARHDLKNKGLNDISTIIKQELTEGRALALSHTYANVSISHVINLWGADFNAEGNLEAIYVTDSDANASIGMKKYFVGINAHGHVAISAKKIEGENIGAQVLGLFTLSSGKDIWQKLSGGGHHHHHH
Conc. of enzyme for 1st IgG heavy chain cleavage (IgG to scIgG), SDS-PAGE: 1900 ng/mL
Conc. of enzyme for 2nd IgG heavy chain cleavage (scIgG to F(ab')2), SDS-PAGE: 7500 ng/mL

B4: pCART208 (protein)
chain: MDDYQRNATEAYAKEVPHQITSVWTKGVTPPEQFTQGEDVIHAPYLAHQGWYDITKAFDGKDNLLCGAATAGNMLHWWFDQNKTEIEAYLSKHPEKQKIIIRNQELFDLKAAIDTKDSQTNSQLFNYFRDKAFPNLSARQLGVMPDLVLDMFINGYYLNVFKTQSTDVNRPYQDKDKRGGIFDAVFTRGDQTTLLTARHDLKNKGLNDISTIIKQELTEGRALALSHTYANVSISHVINLWGADFNAEGNLEAIYVTDSDANASIGMKKYFVGINAHGHVAISAKKIEGENIGAQVLGLFTLSSGKDIWQKLSGGGHHHHHH
IVIg cleavage of the 1st heavy chain, SDS-PAGE titration: pCART207, pCART208 and pCART210 all show increased efficacy compared to IdeS (BX1001865) in the cleavage of the 1st IgG heavy chain (lane 6)
IVIg cleavage of the 1st heavy chain, SDS-PAGE titration: fold efficacy over IdeS: In the case of pCART208 this is approximately a 4 fold increase in cleavage efficacy of the 1st heavy chain
IVIg cleavage of the 2nd heavy chain, SDS-PAGE titration: enzyme concentration giving a dominating F(ab')2 band: pCART208 shows an improved cleavage efficacy, resulting in a dominating F(ab')2 band (arrow 3) at 1.9 ng/ml (lane 5), whereas IdeS (BX1001865) has only generated scIgG (arrow 2) at the same concentration

B5: pCART203 (protein)
chain: MDDYQRNATEAYAKEVPHQITSVWTKGVTPPEQFTQGEDVIHAPYLAHQGWYDITKAFDGKDNLLCGAATAGNMLHWWFDQNKTEIEAYLSKHPEKQKIIFNNQELFDLKAAIDTKDSQTNSQLFNYFRDKAFPNLSARQLGVMPDLVLDMFINGYYLNVFKTQSTDVNRPYQDKDKRGGIFDAVFTRGDQTTLLTARHDLKNKGLNDISTIIKQELTEGRALALSHTYANVSISHVINLWGADFNAEGNLEAIYVTDSDANASIGMKKYFVGINAHGHVAISAKKIEGENIGAQVLGLFTLSSGKDIWQKLSGGGHHHHHH
IVIg cleavage, SDS-PAGE titration: pCART203 shows a capacity comparable to IdeS (BX1001865 and pCART124) at the 2nd cleavage site (lane 2, 3 and 4) and a higher cleavage efficacy than both IdeS and IdeZ (pCART144) at the 1st cleavage site (lane 7)
IVIg cleavage, SDS-PAGE titration: enzyme concentration at which cleavage is seen: Enzyme pCART203 demonstrates IgG cleavage at 0.5 ng/ml (lane 7)
IVIg cleavage, SDS-PAGE titration: enzyme concentration giving an intense scIgG band: Concentrations of 0.94 ng/ml (lane 6) for pCART202, pCART203 and pCART204 result in an intense band of scIgG (arrow 2), with most of the IgG single cleaved
IVIg cleavage, SDS-PAGE titration: enzyme concentration giving mainly scIgG: has generated mainly scIgG (arrow 2) at about 0.9 ng/ml (lane 6)
IVIg cleavage, SDS-PAGE titration: fold efficacy over IdeS: This corresponds to a 2 fold increased efficacy compared to IdeS

B6: pCART210 (protein)
chain: MDDYQRNATEAYAKEVPHQITSVWTKGVTPPEQFTQGEDVIHAPYLANQGWYDITKAFDGKDNLLCGAATAGNMLHWWFDQNKTEIEAYLSKHPEKQKIIFRNQELFDLKEAIRTKDSQTNSQLFEYFRDKAFPYLSARQLGVMPDLVLDMFINGYYLNVFKTQSTDVKRPYQDKDKRGGIFDAVFTRGNQTTLLTARHDLKNKGLNDISTIIKEELTKGRALALSHTYANVSISHVINLWGADFNAEGNLEAIYVTDSDANASIGMKKYFVGINKHGHVAISAKKIEGENIGAQVLGLFTLSSGKDIWQKLNGGGHHHHHH
IVIg cleavage of the 1st heavy chain, SDS-PAGE titration: pCART207, pCART208 and pCART210 all show increased efficacy compared to IdeS (BX1001865) in the cleavage of the 1st IgG heavy chain (lane 6)

B7: pCART206 (protein)
chain: MDDYQRNATEAYAKEVPHQITSVWTKGVTPPEQFTQGEDVIHAPYLAHQGWYDITKAFDGKDNLLCGAATAGNMLHWWFDQNKTEIEAYLSKHPEKQKIIINNQELFDLKAAIDTKDSQTNSQLFNYFRDKAFPNLSARQLGVMPDLVLDMFINGYYLNVFKTQSTDVNRPYQDKDKRGGIFDAVFTRGDQTTLLTARHDLKNKGLNDISTIIKQELTEGRALALSHTYANVSISHVINLWGADFNAEGNLEAIYVTDSDANASIGMKKYFVGINAHGHVAISAKKIEGENIGAQVLGLFTLSSGKDIWQKLSGGGHHHHHH
IVIg cleavage in the presence of anti-IdeS neutralizing antibodies, SDS-PAGE titration: A similar result was obtained for pCART206 (data not shown)

B8: IdeS BX1001865 (protein)
chain: DSFSANQEIRYSEVTPYHVTSVWTKGVTPPANFTQGEDVFHAPYVANQGWYDITKTFNGKDDLLCGAATAGNMLHWWFDQNKDQIKRYLEEHPEKQKINFNGEQMFDVKEAIDTKNHQLDSKLFEYFKEKAFPYLSTKHLGVFPDHVIDMFINGYRLSLTNHGPTPVKEGSKDPRGGIFDAVFTRGDQSKLLTSRHDFKEKNLKEISDLIKKELTEGKALGLSHTYANVRINHVINLWGADFDSNGNLKAIYVTDSDSNASIGMKKYFVGVNSAGKVAISAKEIKEDNIGAQVLGLFTLSTGQDSWNQTN
Conc. of enzyme for 1st IgG heavy chain cleavage (IgG to scIgG), SDS-PAGE: 1900 ng/mL
Conc. of enzyme for 2nd IgG heavy chain cleavage (scIgG to F(ab')2), SDS-PAGE: 6000 ng/mL and 7500 ng/mL
IVIg cleavage, SDS-PAGE titration: enzyme concentration at which cleavage starts: IdeS, which starts the cleavage at 0.9 ng/ml (lane 6) and has a dominating scIgG band at 1.9 ng/ml (lane 5)
IVIg cleavage, SDS-PAGE titration: enzyme concentration giving a dominating scIgG band: IdeS, which starts the cleavage at 0.9 ng/ml (lane 6) and has a dominating scIgG band at 1.9 ng/ml (lane 5)
IVIg cleavage, SDS-PAGE titration: enzyme concentration giving mainly scIgG: IdeS (BX1001865) has generated mainly scIgG (arrow 2) at a concentration of 1.9 ng/ml (lane 5)
IVIg cleavage, SDS-PAGE titration: share of scIgG at 0.94 ng/ml enzyme: the same concentration of IdeS results in less than 50% scIgG (lane 6)

B9: pCART204 (protein)
chain: MDDYQRNATEAYAKEVPHQITSVWTKGVTPPEQFRYNNEDVIHAPYLAHQGWYDITKAFDGKDNLLCGAATAGNMLHWWFDQNKTEIEAYLSKHPEKQKIIFNNQELFDLKAAIDTKDSQTNSQLFNYFRDKAFPNLSARQLGVMPDLVLDMFINGYYLNVFKTQSTDVNRPYQDKDKRGGIFDAVFTRGDQTTLLTARHDLKNKGLNDISTIIKQELTEGRALALSHTYANVSISHVINLWGADFNAEGNLEAIYVTDSDANASIGMKKYFVGINAHGHVAISAKKIEGENIGAQVLGLFTLSSGKDIWQKLSGGGHHHHHH
IVIg cleavage, SDS-PAGE titration: enzyme concentration giving an intense scIgG band: Concentrations of 0.94 ng/ml (lane 6) for pCART202, pCART203 and pCART204 result in an intense band of scIgG (arrow 2), with most of the IgG single cleaved

B10: pCART124 (IdeS with N terminal methionine and histidine tag) (protein)
chain: MDSFSANQEIRYSEVTPYHVTSVWTKGVTPPANFTQGEDVFHAPYVANQGWYDITKTFNGKDDLLCGAATAGNMLHWWFDQNKDQIKRYLEEHPEKQKINFNGEQMFDVKEAIDTKNHQLDSKLFEYFKEKAFPYLSTKHLGVFPDHVIDMFINGYRLSLTNHGPTPVKEGSKDPRGGIFDAVFTRGDQSKLLTSRHDFKEKNLKEISDLIKKELTEGKALGLSHTYANVRINHVINLWGADFDSNGNLKAIYVTDSDSNASIGMKKYFVGVNSAGKVAISAKEIKEDNIGAQVLGLFTLSTGQDSWNQTNGGGHHHHHH
Conc. of enzyme for 1st IgG heavy chain cleavage (IgG to scIgG), SDS-PAGE: 1900 ng/mL
Conc. of enzyme for 2nd IgG heavy chain cleavage (scIgG to F(ab')2), SDS-PAGE: 6000 ng/mL and 7500 ng/mL
IVIg cleavage, SDS-PAGE titration: enzyme concentration at which cleavage starts: IdeS, which starts the cleavage at 0.9 ng/ml (lane 6) and has a dominating scIgG band at 1.9 ng/ml (lane 5)
IVIg cleavage, SDS-PAGE titration: enzyme concentration giving a dominating scIgG band: IdeS, which starts the cleavage at 0.9 ng/ml (lane 6) and has a dominating scIgG band at 1.9 ng/ml (lane 5)
IVIg cleavage, SDS-PAGE titration: share of scIgG at 0.94 ng/ml enzyme: the same concentration of IdeS results in less than 50% scIgG (lane 6)
